Laboratory results taken from the Human Domainome abundance scans (Beltran et al. 2025).
± gives the uncertainty stated by the source.

B1: Peroxisome proliferator-activated receptor delta, residues 71 to 145; numbered along this chain, Q03181 (parent)
chain: NMECRVCGDKASGFHYGVHACEGCKGFFRRTIRMKLEYEKCERSCKIQKKNRNKCQYCRFQKCLALGMSHNAIRF

Variants of: B1
Experiment: abundance fitness (aPCA) (normalised: wild type 0, dead -1); higher = more abundant; growth selection in yeast, the domain comes from the species named
Details: Homo sapiens
NMECRVCGDKASGFHYGVHACEGCKGFFRRTIRMKLEYEKCERSCKIQKKNRNKCQYARFQKCLALGMSHNAIRF showed an abundance fitness of -0.688 ± 0.078.
NMECRVCGDKASGFHYGVHACEGCKGFFRRTIRMKLEYEKCERSCKIQKKNRNKCQYLRFQKCLALGMSHNAIRF gave an abundance fitness of -0.769 ± 0.086.
In the case of NMECRVCGDKASGFHYGVHACEGCKGFFRRTIRMKLEYEKCERSCKIQKKNRNKCQYNRFQKCLALGMSHNAIRF, the abundance fitness is reported as -1.09 ± 0.34.
In the case of NMECRVCGDKASGFHYGVHACEGCKGFFRRTIRMKLEYEKCERSCKIQKKNRNKCQYIRFQKCLALGMSHNAIRF, the abundance fitness is reported as -0.82 ± 0.31.
For NMECRVCGDKASGFHYGVHACEGCKGFFRRTIRMKLEYEKCERSCKIQKKNRNKCQYFRFQKCLALGMSHNAIRF, the abundance fitness was -1 ± 0.24.
NMECRVCGDKASGFHYGVHACEGCKGFFRRTIRMKLEYEKCERSCKIQKKNRNKCQYYRFQKCLALGMSHNAIRF gave an abundance fitness of -0.432 ± 0.16.
Variant NMECRVCGDKASGFHYGVHACEGCKGFFRRTIRMKLEYEKCERSCKIQKKNRNKCQYPRFQKCLALGMSHNAIRF has an abundance fitness of -1.04 ± 0.18.
Work on NMECRVCGDKASGFHYGVHACEGCKGFFRRTIRMKLEYEKCERSCKIQKKNRNKCQYQRFQKCLALGMSHNAIRF yielded an abundance fitness of -0.848 ± 0.17.
Work on NMECRVCGDKASGFHYGVHACEGCKGFFRRTIRMKLEYEKCERSCKIQKKNRNKCQYTRFQKCLALGMSHNAIRF yielded an abundance fitness of -0.957 ± 0.15.
NMECRVCGDKASGFHYGVHACEGCKGFFRRTIRMKLEYEKCERSCKIQKKNRNKCQYDRFQKCLALGMSHNAIRF showed an abundance fitness of -0.719 ± 0.17.
Work on NMECRVCGDKASGFHYGVHACEGCKGFFRRTIRMKLEYEKCERSCKIQKKNRNKCQYERFQKCLALGMSHNAIRF yielded an abundance fitness of -0.925 ± 0.12.
With NMECRVCGDKASGFHYGVHACEGCKGFFRRTIRMKLEYEKCERSCKIQKKNRNKCQYKRFQKCLALGMSHNAIRF the abundance fitness was -0.825 ± 0.13.
With NMECRVCGDKASGFHYGVHACEGCKGFFRRTIRMKLEYEKCERSCKIQKKNRNKCQYGRFQKCLALGMSHNAIRF the abundance fitness was -0.822 ± 0.068.
For NMECRVCGDKASGFHYGVHACEGCKGFFRRTIRMKLEYEKCERSCKIQKKNRNKCQYMRFQKCLALGMSHNAIRF, the abundance fitness was -0.63 ± 0.11.
NMECRVCGDKASGFHYGVHACEGCKGFFRRTIRMKLEYEKCERSCKIQKKNRNKCQYWRFQKCLALGMSHNAIRF showed an abundance fitness of -0.723 ± 0.089.
Work on NMECRVCGDKASGFHYGVHACEGCKGFFRRTIRMKLEYEKCERSCKIQKKNRNKCQYVRFQKCLALGMSHNAIRF yielded an abundance fitness of -0.944 ± 0.097.
NMECRVCGDKASGFHYGVHACEGCKGFFRRTIRMKLEYEKCERSCKIQKKNRNKCQYRRFQKCLALGMSHNAIRF showed an abundance fitness of -0.771 ± 0.069.
NMECRVCGDKASGFHYGVHACEGCKGFFRRTIRMKLEYEKCERSCKIQKKNRNKCQLCRFQKCLALGMSHNAIRF gave an abundance fitness of -0.765 ± 0.12.
NMECRVCGDKASGFHYGVHACEGCKGFFRRTIRMKLEYEKCERSCKIQKKNRNKCQRCRFQKCLALGMSHNAIRF showed an abundance fitness of -0.671 ± 0.069.
Variant NMECRVCGDKASGFHYGVHACEGCKGFFRRTIRMKLEYEKCERSCKIQKKNRNKCQKCRFQKCLALGMSHNAIRF has an abundance fitness of -0.507 ± 0.1.
Work on NMECRVCGDKASGFHYGVHACEGCKGFFRRTIRMKLEYEKCERSCKIQKKNRNKCQECRFQKCLALGMSHNAIRF yielded an abundance fitness of -0.601 ± 0.084.
Work on NMECRVCGDKASGFHYGVHACEGCKGFFRRTIRMKLEYEKCERSCKIQKKNRNKCQVCRFQKCLALGMSHNAIRF yielded an abundance fitness of -0.675 ± 0.087.
Work on NMECRVCGDKASGFHYGVHACEGCKGFFRRTIRMKLEYEKCERSCKIQKKNRNKCQGCRFQKCLALGMSHNAIRF yielded an abundance fitness of -0.746 ± 0.085.
Work on NMECRVCGDKASGFHYGVHACEGCKGFFRRTIRMKLEYEKCERSCKIQKKNRNKCQHCRFQKCLALGMSHNAIRF yielded an abundance fitness of -0.177 ± 0.12.
Variant NMECRVCGDKASGFHYGVHACEGCKGFFRRTIRMKLEYEKCERSCKIQKKNRNKCQTCRFQKCLALGMSHNAIRF has an abundance fitness of -0.77 ± 0.16.
NMECRVCGDKASGFHYGVHACEGCKGFFRRTIRMKLEYEKCERSCKIQKKNRNKCQMCRFQKCLALGMSHNAIRF showed an abundance fitness of -0.867 ± 0.22.
For NMECRVCGDKASGFHYGVHACEGCKGFFRRTIRMKLEYEKCERSCKIQKKNRNKCQNCRFQKCLALGMSHNAIRF, the abundance fitness was -0.946 ± 0.27.
Work on NMECRVCGDKASGFHYGVHACEGCKGFFRRTIRMKLEYEKCERSCKIQKKNRNKCQQCRFQKCLALGMSHNAIRF yielded an abundance fitness of -0.862 ± 0.17.
With NMECRVCGDKASGFHYGVHACEGCKGFFRRTIRMKLEYEKCERSCKIQKKNRNKCQWCRFQKCLALGMSHNAIRF the abundance fitness was -0.125 ± 0.054.
For NMECRVCGDKASGFHYGVHACEGCKGFFRRTIRMKLEYEKCERSCKIQKKNRNKCQCCRFQKCLALGMSHNAIRF, the abundance fitness was -0.305 ± 0.13.
For NMECRVCGDKASGFHYGVHACEGCKGFFRRTIRMKLEYEKCERSCKIQKKNRNKCQICRFQKCLALGMSHNAIRF, the abundance fitness was -0.919 ± 0.36.
Variant NMECRVCGDKASGFHYGVHACEGCKGFFRRTIRMKLEYEKCERSCKIQKKNRNKCQPCRFQKCLALGMSHNAIRF has an abundance fitness of -0.961 ± 0.18.
For NMECRVCGDKASGFHYGVHACEGCKGFFRRTIRMKLEYEKCERSCKIQKKNRNKCQSCRFQKCLALGMSHNAIRF, the abundance fitness was -0.35 ± 0.061.
With NMECRVCGDKASGFHYGVHACEGCKGFFRRTIRMKLEYEKCERSCKIQKKNRNKCQFCRFQKCLALGMSHNAIRF the abundance fitness was -0.186 ± 0.1.
For NMECRVCGDKASGFHYGVHACEGCKGFFRRTIRMKLEYEKCERSCKIQKKNRNKCQACRFQKCLALGMSHNAIRF, the abundance fitness was -0.355 ± 0.064.
NMECRVCGDKASGFHYGVHACEGCKGFFRRTIRMKLEYEKCERSCKIQKKNRNKCQDCRFQKCLALGMSHNAIRF gave an abundance fitness of -0.335 ± 0.11.
